The record followed here is patent US12503518B2, “Heparanase-neutralizing A54 monoclonal antibody” (TECHNION RESEARCH & DEVELOPMENT FOUNDATION LIMITED, priority 2020, dated 2025).

In test [1] the test system is Luc-U87 human glioma cells. Put plainly: U87 glioma tumor growth in NOD/SCID mice, IVIS imaging. The class given is in vivo. As to conditions: s.c. tumors, 500 μg/mouse, 3 times/week; vs PBS; P=0.04. As for the experimental part:
U87 glioma. Cells from exponential cultures of Luciferase labeled U87 glioma cells were detached with trypsin/EDTA, washed with PBS and brought to a concentration of 5×10^7 cells/ml. Cell suspension (5×10^6/0.1 ml) was inoculated subcutaneously at the right flank of 5-weeks old female SCID/Beige mice (n=7). Three days after cell inoculation, mice are randomly assigned to 2 cohorts (5-10 mice each) receiving (a) vehicle (PBS); and (b) A54 mAb (500 μg/mouse, 3 times/week). Tumor development is inspected (once a week) by IVIS imaging following administration of luciferin (see below) as described (Barash et al. FASEB J 2010; 24:1239-48, Barash et al., J Natl Cancer Inst. 110:1102-1114, 2018). […]
IVIS imaging. […] Imaging is performed in real time, is non-invasive and provides quantitative data. […] Light emitted from the bioluminescent cells is detected by the IVIS camera system with images quantified for tumor burden using a log-scale color range set at 5×10^4 to 1×10^7 and measurement of total photon counts per second (PPS) using Living Image software (Xenogen).
Similarly, Luc-U87 human glioma cells (5×10^6/0.1 ml) were inoculated subcutaneously (s.c.) at the right flank of 5-weeks old female NOD/SCID mice (n=5). […] Tumor growth was evaluated by IVIS imaging (FIGS. 5D and 5E) and quantification of luciferase signals is shown graphically (FIG. 5F).

The test system of test [2] is MPC-11 mouse myeloma cells. The test is described as follows: MPC-11 myeloma tumor growth in syngeneic Balb/c mice. It is filed as in vivo. As for the experimental part: MPC-11 myeloma. Mouse MPC-11 myeloma cells are detached with trypsin/EDTA, washed with PBS, brought to a concentration of 5×10^5 cells/0.2 ml and inoculated subcutaneously at the right flank of 6-8-weeks-old Balb/c mice. Three days after cell inoculation, mice are randomly assigned to 2 cohorts (6 mice each) receiving (a) vehicle (PBS); and (b) A54 mAb (500 μg/mouse, 3 times/week. Xenograft size is determined on day 7, 10 and 14 by externally measuring tumors in 2 dimensions using a caliper. At the end of the experiment, mice are sacrificed and tumor xenografts are removed and weighed.
Briefly, Balb/c mice were inoculated (s.c.) with MPC-11 mouse myeloma cells (0.5×10^6). Treatment with mAb A54 (250 or 500 μg/mouse every other day) was initiated two days after cell inoculation. Control cells were administrated with PBS. Xenograft size was determined twice a week by externally measuring the tumors in two dimensions using a caliper, and tumor volume was calculated (FIG. 6A). At the end of the experiment (Day 14) xenografts were removed, weighed (FIG. 6B), fixed in formalin and photographed (FIG. 6C). […] The above results imply that the development of primary tumors can be restrained by the anti-heparanase mAb A54.

The next test deals with EMT-6 luciferase cells. Put plainly: EMT-6 breast carcinoma tumor growth in Balb/c mice. The class given is in vivo. The conditions noted are these: 360 μg/mouse, 2 times/week; vs PBS. As for the experimental part: In subsequent studies, the effect of mAb A54 on breast carcinoma tumor growth was investigated. Balb/c mice (n=3) were inoculated in the mammary fad pad with EMT-6 luciferase cells (0.5×10^6), and mice were treated with A54 mAb (360 μg/mouse, 2 times/week) or PBS as control. Tumor growth was evaluated by IVIS imaging (FIGS. 9A and 9B) and quantification of luciferase signals is shown graphically (FIG. 9C). At the end of the experiment, tumors were resected and weighted (FIG. 9D).

In a further test the test system is LPS-induced sepsis. The test is described as follows: LPS-induced sepsis survival. It is filed as in vivo, C57BL/6 mice. As to conditions: 500 μg/mouse 30 min before LPS (15 mg/kg, i.p.); monitored 8 days. As for the experimental part: In subsequent studies, the effect of mAb A54 on LPS-induced sepsis, was investigated. C57BL/6 mice (n=8) were treated with A54 mAb (500 μg/mouse) or Roneparstat (SST) (1.2 mg/mouse) or PBS as control, 30 min before LPS injection (15 mg/kg, i.p.). SST was given once again (1.2 mg/mouse) 16 hours after LPS administration. Survival of mice was monitored every 12 h for 8 days (FIG. 10).

B1: mAb A54: heparanase-neutralizing murine monoclonal antibody, IgG1-Kappa; VH SEQ ID NO: 7, VL SEQ ID NO: 8; binds HBD-II of heparanase (antibody, listed as Mus musculus, V domains shown)
VH: QVQLQQSGAELAKPGASVRMSCKASGYTFTNYWMHWVKQRPGQGLEWIGYINPTTGYTEYNQKFKDKATLTADKSSSTAYMQLSSLTSEDSAVYYCARGGAGYDYDEDYAMDYWGQGTSVTVSS
VL: DIVLTQSPASLAVSLGQRATISCRASESVEYFGTSYMNWYQQKPGQPPKLLIYLASILESGIPARFSGSGSGTDFTLNIHPVEEEDAATYYCQQSNEDPYTFGGGTKLEIK
Take B1: the “glioma tumor growth rate (IVIS luciferase signal)” value in test [1] is on record as “marked inhibition of the glioma tumor growth rate”. In addition, the “attenuation of myeloma tumor growth” value in test [2] (250 or 500 μg/mouse every other day from day 2, day 14, vs PBS) is 4 fold. Moreover, the “dose dependence of tumor growth attenuation” value in test [2] (250 vs 500 μg/mouse every other day) is given as “higher dose of antibody was more effective”. Besides, the “breast carcinoma tumor growth (IVIS signal, tumor weight)” value in the test with EMT-6 luciferase cells is on record as “attenuates the growth of breast carcinoma”. For the same molecule, the “survival after LPS injection” value in the test with LPS-induced sepsis is recorded as “effectively protects mice from LPS-induced sepsis”.
